Data: paper PMC10128974, “Sulfonylpiperazine compounds prevent Plasmodium falciparum invasion of red blood cells through interference with actin-1/profilin dynamics” (PLOS Biology, 2023)
One block for each molecule: values may come before it.

Experiments:
[1] = target: T1, PfACT1 with PfPFN (P. falciparum actin-1/profilin) (Plasmodium falciparum, UniProt Q8I2J4+Q8I4X0); test: actin cosedimentation by ultracentrifugation, SDS-PAGE densitometry; format: biochemical; settings: 4 uM PfACT1, 16 uM PfPFN, 25 uM compound, 50 mM KCl, 4 mM MgCl2, 1 mM EGTA, 0.5 mM ATP, 2.5% DMSO, pH 7.5, about 22 C, 16 h, binding site not located
T1 construct: gene ACT1; PfACT1 from S. frugiperda Sf21 cells (baculovirus)
T1 sequence (Q8I4X0 whole entry, one chain of several): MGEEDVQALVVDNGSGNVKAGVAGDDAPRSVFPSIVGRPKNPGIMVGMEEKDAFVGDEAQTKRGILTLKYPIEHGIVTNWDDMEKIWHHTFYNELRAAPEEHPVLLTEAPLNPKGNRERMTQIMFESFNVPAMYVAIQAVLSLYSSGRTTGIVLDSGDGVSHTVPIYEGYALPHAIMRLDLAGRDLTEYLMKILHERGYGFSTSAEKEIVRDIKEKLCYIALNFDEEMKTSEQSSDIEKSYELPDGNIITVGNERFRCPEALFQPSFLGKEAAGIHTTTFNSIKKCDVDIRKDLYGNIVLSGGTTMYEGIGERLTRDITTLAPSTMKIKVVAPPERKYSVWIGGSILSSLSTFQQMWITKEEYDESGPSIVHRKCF
Source text: actin cosedimentation by ultracentrifugation, SDS-PAGE densitometry on PfACT1 with PfPFN (P. falciparum actin-1/profilin) | S-W827, decreased the amount of actin in the pellet further to | All MMV291 analogues, S-MMV291, R-MMV291, S-W936, R-W936, S-W414, and S-W827, decreased the amount of actin

[2] = target: Plasmodium falciparum actin-1 (P. falciparum) (UniProt Q8I4X0)
Chain of Plasmodium falciparum actin-1 (P. falciparum) (Q8I4X0 whole entry): as the sequence (Q8I4X0 whole entry, one chain of several) above

Molecule: CC(C(=O)N1CCCC1)N1CCN(S(=O)(=O)c2ccc(C(C)(C)C)cc2)CC1 (racemic) [R-MMV291]
- % PfACT1 in pellet at 25 uM [1]: 15 ± 2%

Molecule: CC(C(=O)N1CCCC1)N1CCN(S(=O)(=O)c2ccc(C(C)(C)C)cc2)CC1 (racemic) [S-MMV291]
- % PfACT1 in pellet at 25 uM [1]: 11 ± 1%

- relative amount of PfACT1 (4 uM) in the pellet fraction of the sedimentation assay under polymerizing conditions with PfPFN (16 uM), DMSO [2]: 21%
- relative amount of PfACT1 (4 uM) in the pellet fraction of the sedimentation assay with PfPFN (16 uM) and R-MMV291 (25 uM) [2]: 15%
- relative amount of PfACT1 (4 uM) in the pellet fraction of the sedimentation assay with PfPFN (16 uM) and R-W936 (25 uM) [2]: 10%
- relative amount of PfACT1 (4 uM) in the pellet fraction of the sedimentation assay with PfPFN (16 uM) and S-MMV291 (25 uM) [2]: 11%
- relative amount of PfACT1 (4 uM) in the pellet fraction of the sedimentation assay with PfPFN (16 uM) and S-W414 (25 uM) [2]: 9%
- relative amount of PfACT1 (4 uM) in the pellet fraction of the sedimentation assay with PfPFN (16 uM) and S-W827 (25 uM) [2]: 5%
- relative amount of PfACT1 (4 uM) in the pellet fraction of the sedimentation assay with PfPFN (16 uM) and S-W936 (25 uM) [2]: 8%
B1: Plasmodium falciparum profilin (natural protein)
chain: MAEEYSWDSYLNDRLLATNQVSGAGLASEEDGVVYACVAQGEESDPNFDKWSLFYKEDYDIEVEDENGTKTTKTINEGQTILVVFNEGYAPDGVWLGGTKYQFINIERDLEFEGYNFDVATCAKLKGGLHLVKVPGGNILVVLYDEEKEQDRGNSKIAALTFAKELAESSQ
